Reference: patent US20240052006A1 (UNIVERSITY OF CHICAGO, published 2024)

Molecular target: T1, mouse plasma-derived SA (mouse SA, Sigma-Aldrich) (mouse, UniProt P07724 25-608)
T1 construct: The SA in the SPR assay was bought (Sigma-Aldrich, plasma-derived, without IL-4); It is not tied to the bought lot by name; also called mouse serum albumin; MSA
Assay: SPR (Biacore X100): murine FcRn immobilised by amine coupling on a C1 chip, mouse SA flowed at 4000 to 250 nM in pH 5.8 running buffer; Langmuir fit
Description: Murine FcRn recombinant protein (Acro Biosystems) was immobilized via amine coupling on a C1 chip (GE Healthcare) for ˜200 resonance units (RU) according to the manufacturer's instructions. SA-IL4 or SA (mouse SA, Sigma-Aldrich) was flowed at decreasing concentrations in the running buffer (0.01 M monobasic anhydrous sodium phosphate, pH 5.8, 0.15 M NaCl) at 30 μl/min. The sensor chip was regenerated with PBS, pH 7.4 for every cycle. Specific bindings of SA fusion proteins to FcRn were calculated by comparison to a non-functionalized channel used as a reference. Experimental results were fitted with Langmuir binding kinetics using BIAevaluation software (GE Healthcare).

Kd: 294 nM
koff: 0.0011 s⁻¹
kon: 3700 M⁻¹ s⁻¹
B1: Murine FcRn recombinant protein (Acro Biosystems) (receptor, mouse)
chain 1: SETRPPLMYHLTAVSNPSTGLPSFWATGWLGPQQYLTYNSLRQEADPCGAWMWENQVSWYWEKETTDLKSKEQLFLEALKTLEKILNGTYTLQGLLGCELASDNSSVPTAVFALNGEEFMKFNPRIGNWTGEWPETEIVANLWMKQPDAARKESEFLLNSCPERLLGHLERGRRNLEWKEPPSMRLKARPGNSGSSVLTCAAFSFYPPELKFRFLRNGLASGSGNCSTGPNGDGSFHAWSLLEVKRGDEHHYQCQVEHEGLAQPLTVDLDSSARSS
chain 2: IQKTPQIQVYSRHPPENGKPNILNCYVTQFHPPHIEIQMLKNGKKIPKVEMSDMSFSKDWSFYILAHTEFTPTETDTYACRVKHASMAEPKTVYWDRDM
notes: Bought from Acro Biosystems and immobilised by amine coupling on a C1 chip; also called Recombinant mouse FcRn; neonatal Fc receptor
